According to the supplement of paper PMC9942255:

Test system: Bacillus subtilis DB104 (SP-AmyQ fusion secretion)
Test: AmyQ secretion efficiency, weighted average sort bin (1 = best secretion, 10 = worst) (bin number (weighted average, 1-10)); higher = lower secretion efficiency
How it was run: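 Occupied alginate beads were sorted by large-particle flow cytometry into 10 equally populated bins according to green/red fluorescence ratio. Each bead (~65 nL) held fluorescein-starch and about 0.3 cells of a B. subtilis DB104 library expressing mature AmyQ fused to designed signal peptides from the amyE locus, and beads were grown about 13 h at room temperature and stained with nile red before sorting. Bin amplicons were Illumina-sequenced, and the secretion score is the read-frequency-weighted average bin number, normalised to beads per bin, excluding low-abundance sequences.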

Row | Sequence | AmyQ secretion efficiency
1 | MFMQIITATTAVVLGSTLFAGAASAQSI | 3.83
2 | MFNLQVMLALTAAAGLGLTALHSAPAAKAAPL | 3.11
3 | MFNRLFRGCGGKQKIMAFTLPNSVYAQKP | 7.39
4 | MFNRLFRMSSFIVCFLAALIMAFTLPNSVYAQKP | 1.95
5 | MFNRLFRRCYTSTLIMAFTLPNSVYAQKP | 5.72
6 | MFNRLFRVCFLAALIMAFDDDNSVYAQKP | 2.33
7 | MFNRLFRVCFLAALIMAFEEEDDEVYAQKP | 4.05
8 | MFNRLFRVCFLAALIMAFFLGNSVYAQKP | 2.37
9 | MFNRLFRVCFLAALIMAFRKKNSVYAQKP | 7.12
10 | MFNRLFRVCFLAALIMAFSSSSLFISLVTLPNSVYAQKP | 4.04
11 | MFNRLFRVCFLAALIMAFTLPNSAYAQKP | 2.14
12 | MFNRLFRVCFLAALIMAFTLPNSCYAQKP | 2.79
13 | MFNRLFRVCFLAALIMAFTLPNSDYAQKP | 6.44
14 | MFNRLFRVCFLAALIMAFTLPNSFYAQKP | 6.02
15 | MFNRLFRVCFLAALIMAFTLPNSGYAQKP | 2.99
16 | MFNRLFRVCFLAALIMAFTLPNSHYAQKP | 6.53
17 | MFNRLFRVCFLAALIMAFTLPNSIYAQKP | 2.87
18 | MFNRLFRVCFLAALIMAFTLPNSKYAQKP | 6.56
19 | MFNRLFRVCFLAALIMAFTLPNSLYAQKP | 2.72
20 | MFNRLFRVCFLAALIMAFTLPNSNYAQKP | 5.99
21 | MFNRLFRVCFLAALIMAFTLPNSPYAQKP | 7.43
22 | MFNRLFRVCFLAALIMAFTLPNSQYAQKP | 7.49
23 | MFNRLFRVCFLAALIMAFTLPNSSYAQKP | 2.08
24 | MFNRLFRVCFLAALIMAFTLPNSTYAQKP | 2.43
25 | MFNRLFRVCFLAALIMAFTLPNSVVTSVYAQKP | 2.32
26 | MFNRLFRVCFLAALIMAFTLPNSVYAKKR | 3.37

Row | Sequence | AmyQ secretion efficiency
27 | MFNRLFRVCFLAALIMAFTLPNSVYAQKR | 2.62
28 | MFNRLFRVCFLAALIMAFTLPNSVYAQPK | 1.86
29 | MFNRLFRVCFLAALIMAFTLPNSVYAQTP | 2.03
30 | MFNRLFRVCFLAALIMAFTLPNSVYCQKP | 4.33
31 | MFNRLFRVCFLAALIMAFTLPNSVYDQKP | 6.94
32 | MFNRLFRVCFLAALIMAFTLPNSVYEQKP | 7.29
33 | MFNRLFRVCFLAALIMAFTLPNSVYFQKP | 7.24
34 | MFNRLFRVCFLAALIMAFTLPNSVYGQKP | 2.74
35 | MFNRLFRVCFLAALIMAFTLPNSVYHQKP | 6.83
36 | MFNRLFRVCFLAALIMAFTLPNSVYIQKP | 7.01
37 | MFNRLFRVCFLAALIMAFTLPNSVYKQKP | 6.24
38 | MFNRLFRVCFLAALIMAFTLPNSVYLQKP | 6.77
39 | MFNRLFRVCFLAALIMAFTLPNSVYMQKP | 7.02
40 | MFNRLFRVCFLAALIMAFTLPNSVYNQKP | 6.82
41 | MFNRLFRVCFLAALIMAFTLPNSVYPQKP | 7.22
42 | MFNRLFRVCFLAALIMAFTLPNSVYQQKP | 5.8
43 | MFNRLFRVCFLAALIMAFTLPNSVYRQKP | 7.13
44 | MFNRLFRVCFLAALIMAFTLPNSVYSQKP | 3.32
45 | MFNRLFRVCFLAALIMAFTLPNSVYTQKP | 4.86
46 | MFNRLFRVCFLAALIMAFTLPNSVYVQKP | 6.52
47 | MFNRLFRVCFLAALIMAFTLPNSVYYQKP | 6.22
48 | MFNRLFRVCFLAALIMAFTLPNSWYAQKP | 7.03
49 | MFNRLFRVCFLAALIMAFTLPNSYYAQKP | 7.48
50 | MFNRLFRVCFLAALIMAFTVYAQKP | 6.93
51 | MFNRLFRVCFLAALIMAFVFFIVFTLPNSVYAQKP | 2.03
52 | MFNRLFRVCFLAALIMAFVFTLPNSVYAQKP | 2.33

Row | Sequence | AmyQ secretion efficiency
53 | MFNRLFRVCFLAALIMAFVLTFFVYAQKP | 5.95
54 | MFNRLFRVCFLAALIMTLPNSVYAQKP | 2.44
55 | MFNRLFRVCKKKRKRMAFTLPNSVYAQKP | 7.15
56 | MFNRLFRVCRRAALIMAFTLPNSVYAQKP | 4.23
57 | MFNRLFRYCTLAALIMAFTLPNSVYAQKP | 1.93
58 | MFNRLRVCFLAALIMAFTLPNSVYAQKP | 2
59 | MFNTLFSVCFLAALIMAFTLPNSVYAQKP | 4.02
60 | MFQFAITLSVLCALILLVPTLLVIPFQHNKEAGASV | 6.31
61 | MFRKLLSSLAISALSLGLLVSAPTASFAAES | 5.47
62 | MFRLLVSLRVWMVFLMNWVTPDRKTAAAAVY | 7.07
63 | MFRMIVRMTLPLLIVCLAFSSFSASARAASE | 1.61
64 | MFSIFSLIMMTGLLFGLTSPAFAAEK | 4.78
65 | MFSIGSIMACLILFSFTITTFINTETISAFSN | 5.65
66 | MFSKWMSGLLLVAVGFSFTQVMVHAGET | 6.12
67 | MFSRKILLSSALSFGMLISAVPALAAGT | 3.61
68 | MFTFSGSMFLVGLSAALMSISLFSATASAAST | 1.64
69 | MFTNHTISLLIIFLLASAVLAKPIEAHTV | 2.28
70 | MFTWIYVVLVLSIAGIGGFSVHAASS | 5.5
71 | MGCGTQGKGSGIASFPVSAQAKDQ | 6.09
72 | MGCTMMLLFSAIASFPVSAQAKDQ | 6.4
73 | MGFGSTLVVSALSISALALSVSGVASAHEI | 3.47
74 | MGFVSSSIIALVTILMLSVTSLFALQPSAKAAEH | 2.48
75 | MGGGFSILIMMTGLLFGLTSPAFAAEK | 3.63
76 | MGGGSFSIVFLILLLMLTLVVAPKEKAEAASS | 1.53
77 | MGGLGTLVLLLLVTGLFMSLFAVTATASAQTG | 3.36
78 | MGGMSCSILVVSVTLFFSFLTIGPLAHAQNS | 2.24

Row | Sequence | AmyQ secretion efficiency
79 | MGGSIILLLAVIIAAAAAGVAFYV | 7.67
80 | MGGSILIQVMIMFTLLLTMAFSADAADS | 5.96
81 | MGGVFPLILSAVLFLSCFFGARQTEASASKR | 4.03
82 | MGKRGGSGSSLFISSAVLLSILLPSGQAHAQSA | 1.07
83 | MGKWIYVVLVLSIAGIGGFSVHAASS | 6.5
84 | MGKWYYVVLVLSIAGIGGFSVHAASS | 7.3
85 | MGLGGKLSVAVAASFMSLSISLPGVQAAEG | 1.01
86 | MGLGKKGTYRVAASFMSLSISLPGVQAAEG | 4.07
87 | MGLGKKLKKKKAASFMSLSISLPGVQAAEG | 7.92
88 | MGLGKKLKKRKRRSFMSLSISLPGVQAAEG | 7.65
89 | MGLGKKLMVAVAAIFMMLMIFLPGVQAAEG | 1.54
90 | MGLGKKLSVAVAASFMSLSISLDDEVQAAEG | 1.35
91 | MGLGKKLSVAVAASFMSLSISLDEEDDEVQAAEG | 1.62
92 | MGLGKKLSVAVAASFMSLSISLFVVQAAEG | 3.73
93 | MGLGKKLSVAVAASFMSLSISLKRRRKRVQAAEG | 7.64
94 | MGLGKKLSVAVAASFMSLSISLPGAVGPGFPTFPSVQAAEG | 1.21
95 | MGLGKKLSVAVAASFMSLSISLPGCQAAEG | 1.48
96 | MGLGKKLSVAVAASFMSLSISLPGEQAAEG | 3.68
97 | MGLGKKLSVAVAASFMSLSISLPGGPAVQAAEG | 1.61
98 | MGLGKKLSVAVAASFMSLSISLPGGQAAEG | 1.55
99 | MGLGKKLSVAVAASFMSLSISLPGIQAAEG | 1.56
100 | MGLGKKLSVAVAASFMSLSISLPGKQAAEG | 4.55
101 | MGLGKKLSVAVAASFMSLSISLPGLQAAEG | 1.65
102 | MGLGKKLSVAVAASFMSLSISLPGQQAAEG | 3.99
103 | MGLGKKLSVAVAASFMSLSISLPGRQAAEG | 3.87
104 | MGLGKKLSVAVAASFMSLSISLPGSQAAEG | 2.3

Row | Sequence | AmyQ secretion efficiency
105 | MGLGKKLSVAVAASFMSLSISLPGTQAAEG | 1.77
106 | MGLGKKLSVAVAASFMSLSISLPGVAAGFVFVQAAEG | 4.93
107 | MGLGKKLSVAVAASFMSLSISLPGVQAAED | 2.84
108 | MGLGKKLSVAVAASFMSLSISLPGVQAAPG | 2.04
109 | MGLGKKLSVAVAASFMSLSISLPGVQAAPR | 2.88
110 | MGLGKKLSVAVAASFMSLSISLPGVQAEDD | 4.28
111 | MGLGKKLSVAVAASFMSLSISLPGVQARKR | 6.96
112 | MGLGKKLSVAVAASFMSLSISLPGVQCAEG | 2.75
113 | MGLGKKLSVAVAASFMSLSISLPGVQDAEG | 3.93
114 | MGLGKKLSVAVAASFMSLSISLPGVQEAEG | 6.02
115 | MGLGKKLSVAVAASFMSLSISLPGVQFAEG | 4.64
116 | MGLGKKLSVAVAASFMSLSISLPGVQGAEG | 1.9
117 | MGLGKKLSVAVAASFMSLSISLPGVQHAEG | 3.41
118 | MGLGKKLSVAVAASFMSLSISLPGVQKAEG | 3.62
119 | MGLGKKLSVAVAASFMSLSISLPGVQLAEG | 4.12
120 | MGLGKKLSVAVAASFMSLSISLPGVQMAEG | 3.92
121 | MGLGKKLSVAVAASFMSLSISLPGVQNAEG | 2.95
122 | MGLGKKLSVAVAASFMSLSISLPGVQPAEG | 4.8
123 | MGLGKKLSVAVAASFMSLSISLPGVQQAEG | 3.24
124 | MGLGKKLSVAVAASFMSLSISLPGVQRAEG | 2.64
125 | MGLGKKLSVAVAASFMSLSISLPGVQSAEG | 3.87
126 | MGLGKKLSVAVAASFMSLSISLPGVQTAEG | 3.78
127 | MGLGKKLSVAVAASFMSLSISLPGVQVAEG | 3.6
